Among the data in patent US20230045791A1 (published 2023) are EC50 and Kd values, retold here.

Like-named read-outs stand apart in the source and are kept apart here.

The target in test [1] is T1, rhesus monkey TNFR2 expressed on CHO cells (CHO.mkHFB3) (rhesus monkey, UniProt F7GUU0 22-457).
T1 chain: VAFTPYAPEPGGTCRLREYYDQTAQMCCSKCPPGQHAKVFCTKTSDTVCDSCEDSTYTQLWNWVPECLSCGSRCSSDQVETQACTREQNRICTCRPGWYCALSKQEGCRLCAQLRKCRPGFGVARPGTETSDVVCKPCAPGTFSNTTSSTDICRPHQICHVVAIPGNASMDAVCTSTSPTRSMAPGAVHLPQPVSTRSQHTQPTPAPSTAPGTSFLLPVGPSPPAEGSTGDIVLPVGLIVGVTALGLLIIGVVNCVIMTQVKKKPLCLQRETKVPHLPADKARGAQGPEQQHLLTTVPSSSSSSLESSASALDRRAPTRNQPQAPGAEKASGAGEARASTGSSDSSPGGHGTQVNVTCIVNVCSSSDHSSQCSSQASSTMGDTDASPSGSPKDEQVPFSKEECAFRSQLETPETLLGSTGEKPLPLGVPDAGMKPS
As to the kind of experiment: FACS cell binding.

The target in test [2] is T1, rhesus monkey TNFR2 expressed on CHO …. As to the kind of experiment: FACS cell binding.
For test [3], the target named is T2, His-tagged recombinant human TNFR2 (human, UniProt P20333 23-257).
T2 chain: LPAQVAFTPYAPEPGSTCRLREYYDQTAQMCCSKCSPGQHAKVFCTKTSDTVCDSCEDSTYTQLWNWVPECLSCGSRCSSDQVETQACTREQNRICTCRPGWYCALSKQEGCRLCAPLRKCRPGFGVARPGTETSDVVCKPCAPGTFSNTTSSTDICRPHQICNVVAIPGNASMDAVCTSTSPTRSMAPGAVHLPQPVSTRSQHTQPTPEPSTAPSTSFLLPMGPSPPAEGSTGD
In words: ELISA. A general note: In an ELISA, binding on a coated surface is turned into a signal by an enzyme label.

Test [4] deals with T2, His-tagged recombinant human TNFR2. In words: BLI (AHC biosensor).
Test [5] concerns the target T3, human TNFR2 expressed on cells (CHO.hHFB3 / CHO.hTNFR2 cells; primary human T cells) (human, UniProt P20333 23-461).
T3 chain: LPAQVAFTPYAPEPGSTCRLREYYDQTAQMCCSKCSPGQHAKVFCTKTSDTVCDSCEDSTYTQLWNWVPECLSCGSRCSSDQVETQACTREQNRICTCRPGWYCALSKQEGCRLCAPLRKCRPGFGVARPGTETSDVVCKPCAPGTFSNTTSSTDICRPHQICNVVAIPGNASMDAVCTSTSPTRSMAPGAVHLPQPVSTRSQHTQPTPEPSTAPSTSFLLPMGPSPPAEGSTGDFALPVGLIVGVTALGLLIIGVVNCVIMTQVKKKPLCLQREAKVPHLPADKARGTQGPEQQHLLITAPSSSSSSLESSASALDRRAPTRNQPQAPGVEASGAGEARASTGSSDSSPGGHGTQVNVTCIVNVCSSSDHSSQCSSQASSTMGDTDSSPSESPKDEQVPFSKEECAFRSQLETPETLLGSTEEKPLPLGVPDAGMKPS
In words: FACS cell binding.

Test [6] concerns the target T2, His-tagged recombinant human TNFR2. As to the kind of experiment: Octet BLI. Background: BLI is a label-free optical method that tracks binding on a fibre tip over time.
Test [7] addresses T3, human TNFR2 expressed on cells …. In words: FACS cell binding; IgG1AA format.
In test [8] the target is T1, rhesus monkey TNFR2 expressed on CHO …. In words: FACS cell binding.
Test [9] deals with T3, human TNFR2 expressed on cells …. As to the kind of experiment: FACS cell binding; IgG1AA format.
The target is the same in test [10]. As to the kind of experiment: FACS cell binding.

B1: HFB3-14-hG1 (mouse monoclonal antibody) (antibody, V domains shown)
VH: EVQLQQSGPELVKPGASVRISCKASGYTFTDYYMNWVKQSHGKSLEWIGDINPNDGGTTYSQKFKGKATLTVDKSSSTAYMELRSLTSEDSAVYFCAREGNYYAYDVRVWYFDVWGTGTTVTVSS
VL: DIQMTQSPASLSVSVGETVTITCRSSENIYSNLAWYQQKQGKSPQLLVYAATNLADGVPSRFSGSGSGTQYSLKINSLQSEDFGSYYCQHFWGTPWTFGGGTKLEIKR
As for B1, the results for the EC50 in [1] and in [2] were 2.15 nM and 2.13 nM, respectively.

B2: HFB3-18-hG1 (mouse monoclonal antibody) (antibody, V domains shown)
VH: EVKLEESGGGLVQPGGSMKLSCAASGFTFSDAWMDWVRQSPEKGLEWVAEVRNKANNHATYYAESVKGRFTISRDDSKSSVYLQMNSLRAEDTGIYYCTRSVGGYGTTYWYFDVWGTGTTVTVSS
VL: DIVMTQSPSSLSVSAGEKVTMSCKSSQNLLNSGNQKNYLAWYQQKPGQPPKLLIFGASTRESGVPDRFTGSGSGTDFTLTISSVQAEDLAVYYCQSEHSYPYTFGGGTKLEIKR
For B2, the EC50 – broadly, the concentration needed to bring the measured effect to its halfway point – turned out to be 49.8 nM in test [3], 4.85 nM in test [2] and 4.17 nM in test [5]. In addition, in test [4], the Kd (as a rule, the equilibrium constant for the complex coming apart) is 4.2 nM.

B3: HFB3-1-hG1 (mouse monoclonal antibody) (antibody, V domains shown)
VH: EFQLQQSGPELVKPGASVKISCKASSYSFTDYNMNWVKQSNGKSLEWIGIIFPKYGTTSYNQKFKGKATLTVDQSSSTAYMQLNSLTSEDSAVYYCATDGGTWYFDVWGTGTTVTVSS
VL: QIVLTQSPALMSASPGEKVTMTCSASSSVTYMYWYQQKPRSSPKPWIYLTSNLASGVPARFSGSGSGTSYSLTISSMEAEDAATYYCQQWSSNPPTFGSGTKLEIKR
Consider B3, for which the EC50 in test [3] was determined as 0.06 nM; in test [7] it was 0.905 nM; in test [8], 5.37 nM; in test [2], 0.6 nM; in [5], 0.48 nM. Besides, the results for the Kd in [6] and in test [4] were 6.3 nM and 1.4 nM, respectively.

B4: HFB3-14hz1c-hG1 (humanized monoclonal antibody) (antibody, V domains shown)
VH: QVQLVQSGAEVKKPGSSVKVSCKASGYTFTDYYMNWVRQAPGQGLEWMGDINPNDGGTTYAQKFQGRVTITADESTSTAYMELSSLRSEDTAVYFCAREGNYYAYDVRVWYFDVWGQGTTVTVSS
VL: DIQMTQSPSSLSASVGDRVTITCGASQDIITYLNWYQQKPGKAVKLLIYSTSSLNSGVPSRFSGSGSGTDFTLTISSLQPEDFATYYCQQYSELPYTFGGGTKVELKR
Consider B4, for which the equilibrium dissociation constant (Kd) in [6] is 2.8 nM. The EC50 amounted to 2.9 nM in [9], 0.7 nM in test [1] and 1.77 nM in test [10].

B5: HFB3-1hz6-hG1 (humanized monoclonal antibody) (antibody, V domains shown)
VH: QVQLVQSGAELKKPGASVKVSCKASSYSFTDYNMNWVRQAPGQSLEWMGIIFPKYGTTSYAQKLQGRVTLTTDTSTSTAYMELRSLRSDDTAVYYCATDGGTWYFDVWGTGTTVTVSS
VL: DIQLTQSPSFLSASVGDRVTITCRASSSVTYMYWYQQKPGKAPKPWIYLTSNLASGVPSRFSGSGSGTEYTLTISSLQPEDAATYYCQQWSSNPPTFGSGTKLEIKR
Regarding B5, in test [6], the equilibrium dissociation constant (Kd) was determined as 15.2 nM. Further, the 50% effective concentration (EC50) in [7] turned out to be 4.07 nM; in [8], 19.1 nM.
